These results are taken from PMC3062594, “Intermolecular masking of the HIV-1 Rev NLS by the cellular protein HIC: Novel insights into the regulation of Rev nuclear import” (Retrovirology, 2011).

The test deals with T1, recombinant 6×His-HIC (Human I-mfa domain-Containing protein) (human, UniProt Q9P1T7-2 1-246).
T1 construct: also called 6xHis-HIC; 6ΧHis HIC; source: recombinant, purified; produced as described previously [25]; not shown: 6xHis, N-terminal, kept
T1 sequence (looked up): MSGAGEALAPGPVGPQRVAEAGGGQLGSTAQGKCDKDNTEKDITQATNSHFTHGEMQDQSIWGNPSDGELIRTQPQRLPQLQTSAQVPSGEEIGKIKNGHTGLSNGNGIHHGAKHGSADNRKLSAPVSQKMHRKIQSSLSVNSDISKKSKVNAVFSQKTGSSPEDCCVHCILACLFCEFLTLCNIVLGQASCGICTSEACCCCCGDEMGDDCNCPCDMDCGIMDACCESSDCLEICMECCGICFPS
Kind of test: pull-down. Particulars: both partners purified.

B1: GST-YFP-RevNLS (aa35-46) (domain or fragment)
chain: RQARRNRRRRWR
notes: source: recombinant GST fusion protein, purified; produced as described previously; not shown: GST, N-terminal, kept; YFP, N-terminal, kept
Regarding B1, the binding result is “binds”.
